The chains are these.
B1: TPR t1 (parent)
chain: GACCAAUCUGCCCUCAGAGCUCGAGAACAUCUUCGGAUGCAGAGGAGGCAGGCUUCGGUGGCGCGAUAGCGCCAACGUCCUCAACCUCCAAUGCAUCCCACCACAUGAUGAUGCCUGAAGAGCCUUGGUUUUUUG

The data set covers variants of B1. The data set can be described thus: polymerase ribozyme fitness, log enrichment relative to wild type (log ratio); higher = more active; in vitro selection for triplet polymerase activity. In outline:
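The heterodimeric triplet polymerase ribozyme's subunits were each mutagenized into PCR-built libraries and transcribed. Every library was selected once, in triplicate, by annealing with a biotinylated primer, the partner subunit and triplets, incubating frozen at −7 °C, gel-excising extended constructs, capturing on streptavidin beads and running RT-PCR. Input and output libraries were Illumina-sequenced, with genotypes kept only at ≥10 input reads and ≥1 read per output. Fitness, from inverse-variance-weighted replicate averages, is the base-2 logarithm of genotype enrichment over wild-type enrichment.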
With C8A A18C C22G, the “polymerase ribozyme fitness (log ratio)” value is -4.25.

For C8A A26G C56G C115U, the “polymerase ribozyme fitness (log ratio)” value is -1.74.

In the case of C8A C79G C85G, the “polymerase ribozyme fitness (log ratio)” value was -2.78.

Consider C8A G52A, for which the “polymerase ribozyme fitness (log ratio)” value was -0.0157.

As for U7G C72U U81A A91C G107C U112C, the “polymerase ribozyme fitness (log ratio)” value was -5.54.

On to C8A C85U, for which the “polymerase ribozyme fitness (log ratio)” value is -0.102.

Consider U7G C124A, for which the “polymerase ribozyme fitness (log ratio)” value amounted to 1.74.

For U7G G48U C70A C86G, the “polymerase ribozyme fitness (log ratio)” value was -1.54.

As to U7G C20U, the “polymerase ribozyme fitness (log ratio)” value is -1.37.

With C8A C49A G61A, the “polymerase ribozyme fitness (log ratio)” value turned out to be 0.627.

C8A G61U C98A: the “polymerase ribozyme fitness (log ratio)” value is -3.46.

In the case of U7G C28G U106A, the “polymerase ribozyme fitness (log ratio)” value is -1.02.

Turning to C8A G45C G58A C97G U106A, the “polymerase ribozyme fitness (log ratio)” value is -3.12.

In the case of C8A C31A U129C, the “polymerase ribozyme fitness (log ratio)” value was -5.73.

In the case of C8A A41U G61A C86A, the “polymerase ribozyme fitness (log ratio)” value was -1.24.

For C8A G63C C86A G93C, the “polymerase ribozyme fitness (log ratio)” value is -3.35.

In the case of C8A C13G C80U, the “polymerase ribozyme fitness (log ratio)” value was -0.499.

On to C8A C20U G113U A118U, for which the “polymerase ribozyme fitness (log ratio)” value was -0.316.

For C8A C11A C82A G93A, the “polymerase ribozyme fitness (log ratio)” value was -0.542.

For C8A C72A G93C, the “polymerase ribozyme fitness (log ratio)” value was 0.271.

Take C8A C72G C85A A111G U126C: the “polymerase ribozyme fitness (log ratio)” value is -1.51.

Turning to U7G A50U C64U G117C, the “polymerase ribozyme fitness (log ratio)” value is -4.92.

U7G C12G G58A C72U: the “polymerase ribozyme fitness (log ratio)” value was determined as 0.394.

For C8A C11G C13U C20A G36A U78C, the “polymerase ribozyme fitness (log ratio)” value was -3.05.

As to C8A C86G C102U C104U G110A, the “polymerase ribozyme fitness (log ratio)” value is -4.28.

As to U7G U9A G10C A18G A29C, the “polymerase ribozyme fitness (log ratio)” value was -4.02.

With C8A G47U C49U G110U, the “polymerase ribozyme fitness (log ratio)” value is -3.49.

With C8A G120U, the “polymerase ribozyme fitness (log ratio)” value turned out to be 0.91.

On to C8A C124A, for which the “polymerase ribozyme fitness (log ratio)” value is 2.16.

On to U7G G52A U106C G122U U131G, for which the “polymerase ribozyme fitness (log ratio)” value is -0.951.

Consider C8A C49U C72A A100C U106G U109A U132C, for which the “polymerase ribozyme fitness (log ratio)” value was -4.59.

For C8A C79U C98G C114U, the “polymerase ribozyme fitness (log ratio)” value was -6.7.

As to C8A G36U C82A, the “polymerase ribozyme fitness (log ratio)” value was -0.55.

Regarding C8A C56A C70A C98U C123G, the “polymerase ribozyme fitness (log ratio)” value was -1.64.

As for C8A C11G A103C A119U G120A, the “polymerase ribozyme fitness (log ratio)” value is -3.31.

On to U7G C8U A90U A121C, for which the “polymerase ribozyme fitness (log ratio)” value stood at 1.04.

Take C8A A100C: the “polymerase ribozyme fitness (log ratio)” value was -0.0614.

For the variant U7G C79U U81C C86U C88A U125A, the “polymerase ribozyme fitness (log ratio)” value was -4.3.

In the case of U7G G47A C56A C70G, the “polymerase ribozyme fitness (log ratio)” value was -5.1.

In the case of C8A C15A G52C C80A, the “polymerase ribozyme fitness (log ratio)” value is -4.36.

As for C8A A41U G69U C86A, the “polymerase ribozyme fitness (log ratio)” value was -0.0176.

As for C8A A18C G60U, the “polymerase ribozyme fitness (log ratio)” value was -1.62.

For the variant C8A A43C C70G, the “polymerase ribozyme fitness (log ratio)” value is -6.43.

As for C8A C13U C49G, the “polymerase ribozyme fitness (log ratio)” value was 0.151.

In the case of C8A C12A G61C G69U G120A U129G, the “polymerase ribozyme fitness (log ratio)” value is -1.45.

As to U7G U96C, the “polymerase ribozyme fitness (log ratio)” value was -0.0298.

As to U7G G69U, the “polymerase ribozyme fitness (log ratio)” value was 0.479.

For C8A C49U C73U U130A, the “polymerase ribozyme fitness (log ratio)” value was -0.88.

Turning to C8A A84G, the “polymerase ribozyme fitness (log ratio)” value was determined as 0.231.

Take C8A C12G U54A: the “polymerase ribozyme fitness (log ratio)” value worked out at 0.0252.

As to C8A C123A C124U G127U, the “polymerase ribozyme fitness (log ratio)” value came out at 0.694.

For C8A G47U U78G U81G, the “polymerase ribozyme fitness (log ratio)” value was -4.17.

On to C8A U9G C62A, for which the “polymerase ribozyme fitness (log ratio)” value is -0.773.

For U7G C34U G69U C102U U106A, the “polymerase ribozyme fitness (log ratio)” value is -0.632.

U7G C73U U78A: the “polymerase ribozyme fitness (log ratio)” value amounted to 0.634.

With U7G A91U, the “polymerase ribozyme fitness (log ratio)” value is -1.77.

Consider C8A G69A G120C, for which the “polymerase ribozyme fitness (log ratio)” value is -1.1.

Take U7G U54A C102A U112A U131A: the “polymerase ribozyme fitness (log ratio)” value was -0.106.

Take C8A G25U: the “polymerase ribozyme fitness (log ratio)” value was -4.13.

Take U7G G60U: the “polymerase ribozyme fitness (log ratio)” value is -0.565.

As to C8A C56G A91C C123A, the “polymerase ribozyme fitness (log ratio)” value is 0.619.

C8A C12A C70U G77C U92A G127U U130G U131A: the “polymerase ribozyme fitness (log ratio)” value was -6.59.

C8A C72U U87A C99U: the “polymerase ribozyme fitness (log ratio)” value was -2.56.

On to U7G G71C, for which the “polymerase ribozyme fitness (log ratio)” value is -0.641.

Regarding C8A G47U C73G C82U, the “polymerase ribozyme fitness (log ratio)” value was -1.82.

Regarding U7G C13G G57A, the “polymerase ribozyme fitness (log ratio)” value was -0.156.

For C8A C11G C64A A103C A119U G120A, the “polymerase ribozyme fitness (log ratio)” value is -6.83.

As to C8A C72U U133A, the “polymerase ribozyme fitness (log ratio)” value is -0.145.

Consider C8A U9G, for which the “polymerase ribozyme fitness (log ratio)” value was -0.0103.

Turning to C8A C12U A46C G93A C115A, the “polymerase ribozyme fitness (log ratio)” value turned out to be 0.651.

C8A C53A: the “polymerase ribozyme fitness (log ratio)” value was determined as 0.281.

Take U7G C88U A119G: the “polymerase ribozyme fitness (log ratio)” value came out at 1.51.

As for U7G G65U, the “polymerase ribozyme fitness (log ratio)” value is -5.58.

Take U7G G77A A83C: the “polymerase ribozyme fitness (log ratio)” value was determined as 0.167.

With C8A C28G C53A, the “polymerase ribozyme fitness (log ratio)” value is -2.01.

As for C8A C20G G45U C73U C123G, the “polymerase ribozyme fitness (log ratio)” value is -5.63.

As for U7G U9A G120C, the “polymerase ribozyme fitness (log ratio)” value was 1.99.

Consider C8A C70A, for which the “polymerase ribozyme fitness (log ratio)” value is -0.98.

On to U7G U55A G58A G63U C98A A105U G120A, for which the “polymerase ribozyme fitness (log ratio)” value is -5.94.

Take U7G C72U C115U: the “polymerase ribozyme fitness (log ratio)” value was found to be 0.671.

Take C8A A83C A100C: the “polymerase ribozyme fitness (log ratio)” value was -0.702.

As to C8A C11A C22A U32G U33C C34A C40G C72U A100U C115U, the “polymerase ribozyme fitness (log ratio)” value was -6.9.

For the variant U7G G63C, the “polymerase ribozyme fitness (log ratio)” value was -0.0723.

Regarding C8A A18C U38G G61C C94U G110U C123U, the “polymerase ribozyme fitness (log ratio)” value is -7.38.

Values taken from the RNAGym collection of RNA variant scans (doi:10.1073/pnas.2313332121).
